# Assay results as given in patent US9206432B2, “Sulfonylurea-responsive repressor proteins” (priority 2008, dated 2015).
# B1: L1-9: SU-responsive TetR(B) variant, library L1 hit (protein)
# chain: MGSRLDKSKVINSALELLNEVGIEGLTTRKLAQKLGVEQPTLYWHVKNKRALLDALAIEMLDRHATHFCPLEGESWQDFLRNNAKSMRCALLSHRDGAKVCLGTGFTEKQYETAENSLAFLCQQGFSLENALYAMQAVCIFTLGCVLLDQELQVAKEERETPTTDSMPPLLRQALELKDHQGAEPAFLFGLELIICGLEKQLKCESGS
# modifications: Sulfonylurea responsive repressor L1-09
# B2: L1-22: SU-responsive TetR(B) variant, library L1 hit, SEQ ID NO: 7 (protein)
# chain: MGSRLDKSKVINSALELLNEVGIEGLTTRKLAQKLGVEQPTLYWHVKNKRALLDALAIEMMDRHHTHFCPLEGESWQDFLRNTAKSYRCALLSHRDGAKVCLGTAITEKQYETKENNLAFLCQQGFSLENALYARQAVRVFTLGCVLFDQEMQVAKEERETPTTDSMPPLLRQASELLDHQGAEPAFLFGLELIICGLEKQLKSESGS
# modifications: Sulfornylurea responsive repressor L1-22
# B3: L1-29: SU-responsive TetR(B) variant, library L1 hit, SEQ ID NO: 10 (protein)
# chain: MGSRLDKSKVINSALELLNEVGIEGLTTRKLAQKLGVEQPTLYWHVKNKRALLDALAIEMMDRHQTHFCPLEGESWQDFLRNTAKSMRCALLSHRDGAKVWLGTRWTEKQYETPENMLAFLCQQGFSLENALYAWSAVCNFTLGCVLSDQERQVAKEERETPTTDSMPPLLRQAWELSDHQGAEPAFLFGLELIICGLEKQLKCESGS
# modifications: Sulfonylurea responsive repressor L1-29
# B4: L1-44: SU-responsive TetR(B) variant, library L1 hit, SEQ ID NO: 13 (protein)
# chain: MGSRLDKSKVINSALELLNEVGIEGLTTRKLAQKLGVEQPTLYWHVKNKRALLDALAIEMLDRHATHFCPLEGESWQDFLRNNAKSYRCALLSHRDGAKVYLGTAVTEKQYETAENQLAFLCQQGFSLENALYAVKAVAGFTLGCVLWDQESQVAKEERETPTTASMPPLLRQAVELADHQGAEPAFLFGLELIICGLEKQLKCESGS
# modifications: Sulfonylurea responsive repressor L1-44
# B5: L1-24: SU-responsive TetR(B) variant, library L1 hit (protein)
# chain: MGSRLDKSKVINSALELLNEVGIEGLTTRKLAQKLGVEQPTLYWHVKNKRALLDALAIEMLDRHNTHFCPLEGESWQDFLRNSAKSMRCALLSHRDGAKVLLGTAVTEKQYETTENSLAFLCQQGFSLENALYAIRAVRTFTLGCVLVDQERQVAKEERETPTTDSMPPLLRQAKELLDHQGAEPAFLFGLELIICGLEKQLKCESGS
# modifications: Sulfonylurea responsive repressor L1-24
# B6: L1-28: SU-responsive TetR(B) variant, library L1 hit (protein)
# chain: MGSRLDKSKVINSALELLNEVGIEGLTTRKLAQKLGVEQPTLYWHVKNKRALLDALAIEMLDRHATHFCPLEGESWQDFLRNNAKSMRCALLSHRDGAKVWLGTAWTEKQYETPENVLAFLCQQGFSLENALYASRAVVTFTLGCVLTDQEKQVAKEERETPTTDSMPPLLRQAWELLDHQGAEPAFLFGLELIICGLEKQLKCESGS
# modifications: Sulfonylurea responsive repressor L1-28
# B7: L1-31: SU-responsive TetR(B) variant, library L1 hit (protein)
# chain: MGSRLDKSKVINSALELLNEVGIEGLTTRKLAQKLGVEQPTLYWHVKNKRALLDALAIEMLDRHATHFCPLEGESWQDFLRNNAKSMRCALLSHRDGAKVMLGTRATEKQYETVENRLAFLCQQGFSLENALYAVRAVHWFTLGCVLIDQEMQVAKEERETPTTDSMPPLLRQAYELYDHQGAEPAFLFGLELIICGLEKQLKCESGS
# modifications: Sulfonylurea responsive repressor L1-31
# Test system: lacZ under control of the tetA promoter (PtetA) in E. coli KM3
# Format: cell-based
# Settings: Table 4; chlorimuron 20 ppm; 48 hrs at 30° C.
row,Molecule,"relative β-galactosidase activity, inducer Ci"
1,B1,9.8
2,B2,10.4
3,B3,20.9
4,B4,6.7
5,B5,22.1
6,B6,14.6
7,B7,1.1

# Same assay, conditions: Table 4; chlorsulfuron 20 ppm; 48 hrs at 30° C.
row,Molecule,"relative β-galactosidase activity, inducer Cs"
1,B1,23.6
2,B2,0.2
3,B3,15.8
4,B4,12.0
5,B5,3.3
6,B6,5.8
7,B7,1.4

# Same assay, conditions: Table 4; ethametsulfuron 20 ppm; 48 hrs at 30° C.
row,Molecule,"relative β-galactosidase activity, inducer Es"
1,B1,11.8
2,B2,0.3
3,B3,1.7
4,B4,2.4
5,B5,0.2
6,B6,0.8
7,B7,13.7

# Same assay, conditions: Table 4; metsulfuron 20 ppm; 48 hrs at 30° C.
row,Molecule,"relative β-galactosidase activity, inducer Ms"
1,B1,1.2
2,B2,0.1
3,B3,13.5
4,B4,2.9
5,B5,0.4
6,B6,18.8
7,B7,0.5

# Same assay, conditions: Table 4; nicosulfuron 20 ppm; 48 hrs at 30° C.
row,Molecule,"relative β-galactosidase activity, inducer Ns"
1,B1,0.3
2,B2,0.2
3,B3,0.1
4,B4,0.4
5,B5,0.3
6,B6,0.1
7,B7,0.5

# Same assay, conditions: Table 4; rimsulfuron 20 ppm; 48 hrs at 30° C.
row,Molecule,"relative β-galactosidase activity, inducer Rs"
1,B1,0.4
2,B2,0.1
3,B3,0.1
4,B4,0.3
5,B5,0.3
6,B6,0.2
7,B7,0.4

# Same assay, conditions: Table 4; sulfometuron 20 ppm; 48 hrs at 30° C.
row,Molecule,"relative β-galactosidase activity, inducer Sm"
1,B1,0.6
2,B2,17.2
3,B3,2.7
4,B4,0.4
5,B5,3.1
6,B6,1.1
7,B7,0.9

# Same assay, conditions: Table 4; thifensulfuron 20 ppm; 48 hrs at 30° C.
row,Molecule,"relative β-galactosidase activity, inducer Ts"
1,B1,1.1
2,B2,0.0
3,B3,0.0
4,B4,1.9
5,B5,0.3
6,B6,0.1
7,B7,0.9

# Same assay, conditions: Table 4; tribenuron 20 ppm; 48 hrs at 30° C.
row,Molecule,"relative β-galactosidase activity, inducer Tb"
1,B1,0.4
2,B2,0.3
3,B3,0.3
4,B4,0.4
5,B5,1.6
6,B6,0.3
7,B7,0.1

# Same assay, conditions: Table 8; library L2 parents and hits
row,Molecule,inducer preference
1,B1,"4, 9 (weak)"
2,B2,3
3,B3,9 (weak)
4,B4,9 (weak)

# Same assay, conditions: Table 10; 48 hours at 30° C.
row,Molecule,"relative β-galactosidase activity, No inducer"
1,B1,0.9
2,B2,0.2
3,B3,0.1
4,B4,0.6

# Same assay, conditions: Table 10; ethametsulfuron 2 ppm; 48 hours at 30° C.
row,Molecule,"relative β-galactosidase activity, inducer Es"
1,B1,14.8

# Same assay, conditions: first round hits, 20 ppm inducer (Table 4)
row,Molecule,activity on sulfonylurea inducers
1,B1,strong activity on both ethametsulfuron and chlorsulfuron
2,B2,strong sulfometuron activity
3,B3,moderate metsulfuron activity
4,B4,"moderate activity on metsulfuron, ethametsulfuron and chlorsulfuron"

# Same assay, conditions: library L2 retest, inducers at 2 ppm
row,Molecule,induction response and background
1,B1,sensitivity to 2 ppm Es
